The source of these data is paper doi:10.1101/2023.12.14.571638, “Structural basis of a regulatory switch in mammalian complex I” (bioRxiv, 2023).

The labels stand for the following.
B1: NDUFA1 (natural protein, Bos taurus (bovine), UniProt Q02377 1-70, looked up)
chain: MWFEVLPGIAVMGVCLFIPGMATARIHRFSNGGKEKRVAHYPYQWYLMERDRRVSGVNRSYVSKGLENID
notes: NDUFA1, supernumerary subunit of respiratory complex I, Bos taurus; endogenous subunit of the purified enzyme
B2: NDUFA13 (natural protein, Bos taurus (bovine), UniProt Q95KV7 1-144, looked up)
chain: MAASKVKQDMPPVGGYGPIDYKRNLPRRGLSGYSMFAVGIGALLFGYWSMMKWNRERRRLQIEDFEARIALMPLLQAEKDRRVLQMLRENLEEEATVMKDVPGWKVGESVFHTTRWVTPMMGELYGLRASEEVLSATYGFIWYT
notes: NDUFA13, supernumerary subunit of respiratory complex I, Bos taurus
B3: ND6 (natural protein, Bos taurus (bovine), UniProt P03924 1-175, looked up)
chain: MMLYIVFILSVIFVMGFVGFSSKPSPIYGGLGLIVSGGVGCGIVLNFGGSFLGLMVFLIYLGGMMVVFGYTTAMATEQYPEIWLSNKAVLGAFVTGLLMEFFMVYYVLKDKEVEVVFEFNGLGDWVIYDTGDSGFFSEEAMGIAALYSYGTWLVIVTGWSLLIGVVVIMEITRGN
notes: ND6, core membrane subunit of respiratory complex I, Bos taurus; endogenous subunit of the purified enzyme
B4: NDUFA8 (natural protein, Bos taurus (bovine), UniProt P42029 1-172, looked up)
chain: MPGIVELPSLEDLKVQEVKVSSSVLKAAAHHYGAQCDKPNKEFMLCRWEEKDPRRCLEEGKLVNQCALEFFRQIKRHCAEPFTEYWTCIDYSGLQLFRRCRKQQAQFDECVLDKLGWVRPDLGDLSKVTKVKTDRPLPENPYHSRARPEPNPEVEGDLKPARHGSRLFFWTM
notes: NDUFA8, supernumerary subunit of respiratory complex I, Bos taurus; endogenous subunit of the purified enzyme

For the experiment, the target named is T1, ND1 (Bos taurus (bovine), UniProt P03887 1-318).
T1 construct: ND1, core membrane subunit of respiratory complex I (NADH:ubiquinone oxidoreductase), Bos taurus; endogenous subunit of the purified enzyme; also called subunit ND1
T1 sequence (P03887 whole entry): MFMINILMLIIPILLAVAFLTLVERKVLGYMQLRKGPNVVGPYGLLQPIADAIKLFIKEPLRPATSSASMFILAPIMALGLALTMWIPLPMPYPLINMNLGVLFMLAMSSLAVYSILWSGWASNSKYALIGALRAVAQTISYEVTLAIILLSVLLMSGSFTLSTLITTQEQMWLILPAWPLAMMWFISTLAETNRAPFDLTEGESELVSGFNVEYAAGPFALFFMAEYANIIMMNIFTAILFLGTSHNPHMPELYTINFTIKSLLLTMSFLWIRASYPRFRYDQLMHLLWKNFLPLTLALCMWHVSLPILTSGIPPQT
The experiment is described as follows: cryo-EM structure; bovine complex I purified in LMNG, reconstituted into proteoliposomes (DOPC:DOPE:cardiolipin 8:1:1, ubiquinone-10; 10 mM MOPS-KOH pH 7.5, 50 mM KCl), on graphene oxide grids; closed, open1 and open2 states, outward- and inward-facing; best map CI-out-closed 2.5 Å. As to conditions: both partners purified.
Take B1: the binding result was “binds”. In the case of B2 it was “binds”. For B3 the value was “binds”; for B4, “binds”.
